Results on 3 variants are retold here after FireProtDB (doi:10.1021/bi9901228).

The chains are these.
B1: Lysozyme C, P61626 (parent)
chain: MKALIVLGLVLLSVTVQGKVFERCELARTLKRLGMDGYRGISLANWMCLAKWESGYNTRATNYNAGDRSTDYGIFQINSRYWCNDGKTPGAVNACHLSCSALLQDNIADAVACAKRVVRDPQGIRAWVAWRNRCQNRDVRQYVQGCGV

The variants in the first data set derive from B1. To be noted: Homo sapiens; pH 2.51; Thermal; DSC; glycine 0.05 M; reversible: yes; structure 1LZ1; whole UniProt chain shown.
One may read the Tm as the temperature at which the thermal transition is half complete. Take MKALIVLGLVLLSVTVQGKVFERCELARTLKRLGMDGYRGISLANWMCLAKWESGYNTRATNYNAGDRSTDYGIFQINSRYWCNDGKTPGAVNACHLSCAALLQDNIADAVACAKRVVRDPQGIRAWVAWRNRCQNRDVRQYVQGCGV: the Tm was determined as 62.5 °C, the “heat capacity change of unfolding” value amounted to 1.41 kcal/mol/K, the “unfolding enthalpy (calorimetric)” value amounted to 111 kcal/mol and the “unfolding enthalpy (van 't Hoff)” value amounted to 117 kcal/mol.

As to MKALIVLGLVLLSVTVQGKVFERCELARTLKRLGMDGYRGISLANWMCLAKWESGYNTRATNYNAGDRSTDYGIFQINARYWCNDGKTPGAVNACHLSCSALLQDNIADAVACAKRVVRDPQGIRAWVAWRNRCQNRDVRQYVQGCGV, the Tm turned out to be 57 °C, the “heat capacity change of unfolding” value came to 1.1 kcal/mol/K, the “unfolding enthalpy (calorimetric)” value was 99 kcal/mol and the “unfolding enthalpy (van 't Hoff)” value amounted to 103 kcal/mol.

Still in this data set, the particulars now being: Homo sapiens; pH 2.7; Thermal; DSC; glycine 0.05 M; reversible: yes; structure 1LZ1; whole UniProt chain shown.
With MKALIVLGLVLLSVTVQGKVFERCELARTLKRLGMDGYRGISLANWMCLAKWESGYNTRATNYNAGDRSTDYGIFQINSRYWCNDGKTPGAVNACHLSCAALLQDNIADAVACAKRVVRDPQGIRAWVAWRNRCQNRDVRQYVQGCGV, the Tm stood at 66 °C; the “change of melting temperature, mutant - wild type (higher = more stable)” value (from here on “change of melting temperature, mutant”) came out at 1.1 °C; the “heat capacity change of unfolding” value worked out at 1.27 kcal/mol/K; the “unfolding enthalpy (calorimetric)” value is 114 kcal/mol.

Consider MKALIVLGLVLLSVTVQGKVFERCELARTLKRLGMDGYRGISLANWMCLAKWEAGYNTRATNYNAGDRSTDYGIFQINSRYWCNDGKTPGAVNACHLSCSALLQDNIADAVACAKRVVRDPQGIRAWVAWRNRCQNRDVRQYVQGCGV, for which the Tm came to 61.4 °C; the “change of melting temperature, mutant” value was -3.5 °C; the “heat capacity change of unfolding” value was found to be 1.31 kcal/mol/K; the “unfolding enthalpy (calorimetric)” value came out at 109 kcal/mol.

For MKALIVLGLVLLSVTVQGKVFERCELARTLKRLGMDGYRGISLANWMCLAKWESGYNTRATNYNAGDRSTDYGIFQINARYWCNDGKTPGAVNACHLSCSALLQDNIADAVACAKRVVRDPQGIRAWVAWRNRCQNRDVRQYVQGCGV, the Tm worked out at 60.6 °C; the “change of melting temperature, mutant” value is -4.3 °C; the “heat capacity change of unfolding” value was 1.27 kcal/mol/K; the “unfolding enthalpy (calorimetric)” value came to 109 kcal/mol.

The same data set, now with this note: Homo sapiens; pH 2.85; Thermal; DSC; glycine 0.05 M; reversible: yes; structure 1LZ1; whole UniProt chain shown.
With MKALIVLGLVLLSVTVQGKVFERCELARTLKRLGMDGYRGISLANWMCLAKWESGYNTRATNYNAGDRSTDYGIFQINSRYWCNDGKTPGAVNACHLSCAALLQDNIADAVACAKRVVRDPQGIRAWVAWRNRCQNRDVRQYVQGCGV, the Tm came to 68.9 °C, the “heat capacity change of unfolding” value stood at 1.2 kcal/mol/K, the “unfolding enthalpy (calorimetric)” value is 120 kcal/mol and the “unfolding enthalpy (van 't Hoff)” value turned out to be 128 kcal/mol.

Staying with this data set, now noted: Homo sapiens; pH 3.12; Thermal; DSC; glycine 0.05 M; reversible: yes; structure 1LZ1; whole UniProt chain shown.
Consider MKALIVLGLVLLSVTVQGKVFERCELARTLKRLGMDGYRGISLANWMCLAKWESGYNTRATNYNAGDRSTDYGIFQINSRYWCNDGKTPGAVNACHLSCAALLQDNIADAVACAKRVVRDPQGIRAWVAWRNRCQNRDVRQYVQGCGV, for which the Tm was found to be 73.5 °C, the “heat capacity change of unfolding” value was found to be 1.41 kcal/mol/K, the “unfolding enthalpy (calorimetric)” value was determined as 125 kcal/mol and the “unfolding enthalpy (van 't Hoff)” value was 133 kcal/mol.

The data set is the same for the next values; noted with them: Homo sapiens; pH 2.47; Thermal; DSC; glycine 0.05 M; reversible: yes; structure 1LZ1; whole UniProt chain shown.
Regarding MKALIVLGLVLLSVTVQGKVFERCELARTLKRLGMDGYRGISLANWMCLAKWEAGYNTRATNYNAGDRSTDYGIFQINSRYWCNDGKTPGAVNACHLSCSALLQDNIADAVACAKRVVRDPQGIRAWVAWRNRCQNRDVRQYVQGCGV, the Tm was 57.1 °C, the “heat capacity change of unfolding” value stood at 1.31 kcal/mol/K, the “unfolding enthalpy (calorimetric)” value amounted to 98.5 kcal/mol and the “unfolding enthalpy (van 't Hoff)” value came to 103 kcal/mol.

The data set is the same for the next values; noted with them: Homo sapiens; pH 2.67; Thermal; DSC; glycine 0.05 M; reversible: yes; structure 1LZ1; whole UniProt chain shown.
With MKALIVLGLVLLSVTVQGKVFERCELARTLKRLGMDGYRGISLANWMCLAKWEAGYNTRATNYNAGDRSTDYGIFQINSRYWCNDGKTPGAVNACHLSCSALLQDNIADAVACAKRVVRDPQGIRAWVAWRNRCQNRDVRQYVQGCGV, the Tm worked out at 60.8 °C, the “heat capacity change of unfolding” value was 1.31 kcal/mol/K, the “unfolding enthalpy (calorimetric)” value is 104 kcal/mol and the “unfolding enthalpy (van 't Hoff)” value was found to be 109 kcal/mol.

Staying with this data set, now noted: Homo sapiens; pH 2.84; Thermal; DSC; glycine 0.05 M; reversible: yes; structure 1LZ1; whole UniProt chain shown.
Take MKALIVLGLVLLSVTVQGKVFERCELARTLKRLGMDGYRGISLANWMCLAKWEAGYNTRATNYNAGDRSTDYGIFQINSRYWCNDGKTPGAVNACHLSCSALLQDNIADAVACAKRVVRDPQGIRAWVAWRNRCQNRDVRQYVQGCGV: the Tm came to 64 °C, the “heat capacity change of unfolding” value stood at 1.24 kcal/mol/K, the “unfolding enthalpy (calorimetric)” value was 107 kcal/mol and the “unfolding enthalpy (van 't Hoff)” value came to 113 kcal/mol.

As for MKALIVLGLVLLSVTVQGKVFERCELARTLKRLGMDGYRGISLANWMCLAKWESGYNTRATNYNAGDRSTDYGIFQINARYWCNDGKTPGAVNACHLSCSALLQDNIADAVACAKRVVRDPQGIRAWVAWRNRCQNRDVRQYVQGCGV, the Tm stood at 63.6 °C, the “heat capacity change of unfolding” value came to 1.15 kcal/mol/K, the “unfolding enthalpy (calorimetric)” value was 107 kcal/mol and the “unfolding enthalpy (van 't Hoff)” value worked out at 111 kcal/mol.

Still in this data set, the particulars now being: Homo sapiens; pH 3.09; Thermal; DSC; glycine 0.05 M; reversible: yes; structure 1LZ1; whole UniProt chain shown.
Regarding MKALIVLGLVLLSVTVQGKVFERCELARTLKRLGMDGYRGISLANWMCLAKWEAGYNTRATNYNAGDRSTDYGIFQINSRYWCNDGKTPGAVNACHLSCSALLQDNIADAVACAKRVVRDPQGIRAWVAWRNRCQNRDVRQYVQGCGV, the Tm is 68.7 °C, the “heat capacity change of unfolding” value was 1.22 kcal/mol/K, the “unfolding enthalpy (calorimetric)” value amounted to 114 kcal/mol and the “unfolding enthalpy (van 't Hoff)” value stood at 119 kcal/mol.

The same data set, now with this note: Homo sapiens; pH 3.1; Thermal; DSC; glycine 0.05 M; reversible: yes; structure 1LZ1; whole UniProt chain shown.
With MKALIVLGLVLLSVTVQGKVFERCELARTLKRLGMDGYRGISLANWMCLAKWESGYNTRATNYNAGDRSTDYGIFQINARYWCNDGKTPGAVNACHLSCSALLQDNIADAVACAKRVVRDPQGIRAWVAWRNRCQNRDVRQYVQGCGV, the Tm turned out to be 68.3 °C, the “heat capacity change of unfolding” value amounted to 1.31 kcal/mol/K, the “unfolding enthalpy (calorimetric)” value turned out to be 113 kcal/mol and the “unfolding enthalpy (van 't Hoff)” value is 118 kcal/mol.
